Assays:
Test in all cases: CD
[1] = test system: hZαADAR1 (Homo sapiens)
[2] = test system: lsZαE3L (lumpy skin disease virus)
[3] = test system: spZαE3L (swinepox virus)

d(CG)n DNA for CD B-to-Z conversion
binding signal (% B-to-Z conversion) [1]: 100 | binding signal (% B-to-Z conversion) [2]: 90 | binding signal (% B-to-Z conversion) [3]: 65
